We go through eight molecules from publication PMC3078936, “Directed Evolution Reveals the Binding Motif Preference of the LC8/DYNLL Hub Protein and Predicts Large Numbers of Novel Binders in the Human Proteome” (PLoS ONE, 2011).

Data set [1] concerns the target T1, LC8 dynein light chain DYNLL1 (residues 1-89) (human (from the printed UniProt …, UniProt P63167 1-89)).
T1 construct: DYNLL1, residues 1-89, UniProt P63167, cloned into pET-15b; The methods name thrombin removal of the His tag only for DYNLL2; also called DYNNL1; source: E. coli BL21(DE3)Star, purified (Ni IMAC, HiTrapQ anion exchange)
Put plainly: ITC; 15 µM DYNLL1 in the cell, 30-40 injections of 3-5 µl peptide; PBS with 3 mM 2-mercaptoethanol, pH 7.4; 299 K; A + B to AB model. Conditions: both partners purified. A general note: Isothermal titration calorimetry measures the heat released or taken up as one component is titrated into another.

The target of data set [2] is T1, LC8 dynein light chain DYNLL1 (residues …). The data set is described as above. Conditions: both partners purified. The source holds these as a separate data set.
Data set [3] concerns the molecule itself. Put plainly: crystal structure; DYNLL2 (1.2 mM dimer) with 1.3 mM dimerized-VSRGTQTE; hanging drop, 293 K, 20% PEG8000, 0.2 M MgCl2, 0.1 M TRIS pH 7.0.

Ends that are not written are not given here. Where only a bound is given, the exact number is not on record here.

T1 sequence (P63167 whole entry, the tested form may be a part): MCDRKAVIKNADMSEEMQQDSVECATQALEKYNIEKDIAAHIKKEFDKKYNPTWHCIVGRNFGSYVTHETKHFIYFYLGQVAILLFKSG

B1: Ac-DKSTQTD, naturally evolved consensus peptide (peptide)
peptide: Ac-DKSTQTD
notes: also called natural consensus; Ac-5 version of the natural consensus; source: synthetic peptide
B1: in data set [1], the stoichiometry N (in general, a count of units in the complex or per binding partner) turned out to be 1. Besides, in data set [2], the Kd (commonly the equilibrium constant for the complex coming apart) worked out at 5600 nM and the dH is -11.7 kcal/mol.

B2: Ac-GSRGTQTE (peptide)
peptide: Ac-GSRGTQTE
notes: phage-selected consensus with Gly at position -5; also called Gly-5 version of the in vitro evolved consensus; source: synthetic peptide
In the case of B2, in data set [1], the “stoichiometry N” value amounted to 1. In data set [2], the Kd is 1640 nM and the dH is -16.7 kcal/mol.

B3: Ac-VSRGTQTE, in vitro evolved consensus peptide (peptide)
peptide: Ac-VSRGTQTE
notes: also called phage selected consensus; source: synthetic peptide
As for B3, the “stoichiometry N” value in data set [1] worked out at 1. In addition, in data set [2], the Kd amounted to 80 nM and the dH is -18.1 kcal/mol.

B4: Ac-SRGTQTE (peptide)
peptide: Ac-SRGTQTE
notes: phage-selected consensus without position -5; also called Ac-5 version of the in vitro evolved consensus; source: synthetic peptide
For the molecule B4, in data set [1], the “stoichiometry N” value is 1. Also, in data set [2], the Kd was determined as 15200 nM and the dH is -11.6 kcal/mol.

B5: EML3 (8-94), recombinant fragment (domain or fragment, human, UniProt Q32P44 8-94, looked up)
chain: GDGPAREALQSLSQRLRVQEQEMELVKAALAEALRLLRLQVPPSSLQGSGTPAPPGDSLAAPPGLPPTCTPSLVSRGTQTETEVELK
notes: also called EMAP-3; source: recombinant
As for B5, in data set [2], the Kd is 50 nM and the dH is -7.74 kcal/mol.

B6: dimeric-… (Leu-zipper dimerized … peptide) (peptide)
chain: not shown
notes: first two residues (Gly-7, Ser-6) come from the recombinant construct; leucine zipper of yeast GCN4, residues 250-281; PDB 3P8M holds the construct; not shown: GST, N-terminal, cleaved
For the molecule B6, in data set [2], the Kd was under 7 nM and the dH is -15.5 kcal/mol. For the same molecule, in data set [3], the binding result is reported as “binds”.

B7: Ac-GDKSTQTD (peptide)
peptide: Ac-GDKSTQTD
notes: natural consensus extended by Gly at position -5; also called Gly-5 version of the natural consensus; source: synthetic peptide
For B7, in data set [1], the “stoichiometry N” value amounted to 1. Further, in data set [2], the Kd was 560 nM and the dH was -16.8 kcal/mol.

B8: Ac-VDKSTQTD (peptide)
peptide: Ac-VDKSTQTD
notes: natural consensus extended by Val at position -5; also called Val-5 version of the natural consensus; source: synthetic peptide
With B8, the “stoichiometry N” value in data set [1] was found to be 1. For the same molecule, in data set [2], the Kd came out at 70 nM and the dH was -15.6 kcal/mol.
